Measured values: patent publication US6465220B1, “Glycosylation using GalNac-T4 transferase” (GlycoZym ApS, priority 1998, dated 2002)
Blank lines part the entries; values can stand above or below the compound they belong to. Ends that are not written are not given here.

How the values were obtained:
Type in all cases: biochemical
GalNAc-T2 = molecular target: T1, GalNAc-T2 (Homo sapiens, UniProt Q10471); assay: GalNAc-transferase assay with purified recombinant GalNAc-T2
T1 construct: Control constructs pAcGP67-GalNAc-T1-sol, pAcGP67-GalNAc-T2-sol, pAcGP67-GalNAc-T3-sol, and pAcGP67-O^2-sol were prepared as previously described; made in house; host or cells: insect cells (baculovirus, pAcGP67)
Method: (§1) The following examples are provided to illustrate certain preferred embodiments of the invention, and should be considered as illustration and not as limitation. In the examples, GalNAc-transferase assays were performed in 50 μl total reaction mixtures containing 25 mM cacodylate (pH 7.5), 10 mM MnCl2, 0.1-0.25% Triton X-100, 150-200 μM UDP-[^14C]-GalNAc (4,000 cpm/nmole) (Amersham) and 0.06-1 mM acceptor peptides. Peptides were either synthesized or obtained from Carlbiotech (Copenhagen), or Neosystems (Strasbourg), and quality was ascertained by amino acid analysis and mass spectrometry. Peptides Muc-1a, Muc-1b, and TAP24, were derived from the tandem repeat of human MUC1, Gendler et al., J. Biol. Chem. 265:15286 (1990), and Muc2, Muc5AC, and Muc7 from the tandem repeats of MUC2, MUC5AC, and MUC7, respectively. Gum et al., J. Biol. Chem. 264:6480 (1989); Porchet et al., Biochem. Soc. Trans. 23:800 (1995); Bobek et al., J. Biol. Chem. 268:20563 (1993). GalNAc4TAP24 was produced by in vitro glycosylation using GalNAc-T2 as described in Wandall et al., J. Biol. Chem. 272:23503 (1997). Products were quantified by scintillation counting after chromatography on Dowex-1, octadecyl silica cartridges (Bakerbond), or HPLC (PC3.2/3 or mRPC C2/C18 SC2.1/10 Pharmacia, Smart System). Products produced by in vitro glycosylation were in most cases also confirmed by mass spectrometry.
(§2) In this example, GalNAc-T4 was expressed in Sf9 insect cells. Expression constructs designed to contain amino acid residues 32-578 of the coding sequence of the putative GalNAc-T4 gene shown in SEQ ID NO:1 prepared by genomic PCR of two clones containing GalNAc-T4 (described in Bennett et al. (1998), supra) were cloned into a BamHI site of the expression vector pAcGP67 (Pharmingen), and the expression construct was sequenced. The constructs pAcGP67-GalNAc-T4506Vsol and pAcGP67-GalNAc-T4506 I sol, were designed to yield a putative soluble form of the GalNAc-T4 protein with an N-terminal end positioned immediately C-terminal to a potential transmembrane domain and including the entire sequence expected to contain the catalytic domain. Control constructs pAcGP67-GalNAc-T1-sol, pAcGP67-GalNAc-T2-sol, pAcGP67-GalNAc-T3-sol, and pAcGP67-O^2-sol were prepared as previously described in White et al., J. Biol. Chem 270:24156 (1995); Bennett et al., J. Biol. Chem. 271:17006 (1996); and Bennett et al., Biochem. Biophys. Res. Comm. 211:347 (1995).
Activities measured with the mucin derived substrates, Muc7, EA2, and Muc2 (see Table I for structures and SEQ ID NOs:19, 25 and 18, respectively), were only 2-7 fold over background values. Very low activities with a few other substrates were also observed, but for many of the “mucin-like” substrates a relative high background with Sf9 cells infected with irrelevant constructs made assessment difficult. GalNAc-T4 was expressed in High Five cells and purified to near homogeneity, however, very low endogenous activity was detected with some substrates in the same fractions when medium from cells infected with irrelevant expression constructs were used in the same purification strategy. The activities presented in Table I were obtained with purified GalNAc-T4 and -T2, and are expressed as mU/mg (the concentration of enzyme protein estimated by SDS-PAGE using BSA as standard). The highest activities with GalNAc-T4 were found from assays of Sf9 medium with the mucin peptides Muc7, EA2, and Muc2, however, the efficiencies with these substrates were considerably lower than GalNAc-T2.

GalNAc-T3 = molecular target: T2, GalNAc-T3 (Homo sapiens, UniProt Q14435); assay: GalNAc-transferase assay with purified recombinant GalNAc-T3
T2 construct: Control constructs pAcGP67-GalNAc-T1-sol, pAcGP67-GalNAc-T2-sol, pAcGP67-GalNAc-T3-sol, and pAcGP67-O^2-sol were prepared as previously described; made in house; host or cells: insect cells (baculovirus, pAcGP67)
T2 sequence (Q14435 38-633 limits assumed): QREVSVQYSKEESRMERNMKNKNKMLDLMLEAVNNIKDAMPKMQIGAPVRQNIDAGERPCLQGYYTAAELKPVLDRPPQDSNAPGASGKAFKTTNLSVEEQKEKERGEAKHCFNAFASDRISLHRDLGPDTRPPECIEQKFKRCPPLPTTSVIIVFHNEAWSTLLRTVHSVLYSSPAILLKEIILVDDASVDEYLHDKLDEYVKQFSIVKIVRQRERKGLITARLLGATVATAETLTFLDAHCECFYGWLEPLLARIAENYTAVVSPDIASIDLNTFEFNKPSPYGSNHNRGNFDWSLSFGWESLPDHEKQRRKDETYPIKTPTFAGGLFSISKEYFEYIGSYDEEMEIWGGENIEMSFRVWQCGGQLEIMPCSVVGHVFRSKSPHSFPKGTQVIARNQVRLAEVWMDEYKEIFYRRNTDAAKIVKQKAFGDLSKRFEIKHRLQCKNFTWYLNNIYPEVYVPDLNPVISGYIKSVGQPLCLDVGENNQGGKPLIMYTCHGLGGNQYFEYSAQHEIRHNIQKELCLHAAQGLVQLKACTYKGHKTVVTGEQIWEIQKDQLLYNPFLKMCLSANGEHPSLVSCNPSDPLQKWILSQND
Method: as §1, §2

GalNAc-T4 = molecular target: T3, GalNAc-T4 (Homo sapiens, UniProt Q8N4A0); assay: GalNAc-transferase assay with purified recombinant GalNAc-T4
T3 construct: made in house; host or cells: High Five insect cells (baculovirus, pAcGP67 vector)
Method: as §1, with “In” for “The following examples are provided to illustrate certain preferred embodiments of the invention, and should be considered as illustration and not as limitation. In”
as §2, with “Control constructs pAcGP67-GalNAc-T1-sol, pAcGP67-GalNAc-T2-sol, pAcGP67-GalNAc-T3-sol, and pAcGP67-O^2-sol were prepared as previously described in White et al., J. Biol. Chem 270:24156 (1995); Bennett et al., J. Biol. Chem. 271:17006 (1996); and Bennett et al., Biochem. Biophys.” left out
The activities presented in Table I were obtained with purified GalNAc-T4 and -T2, and are expressed as mU/mg (the concentration of enzyme protein estimated by SDS-PAGE using BSA as standard).

GalNAc-T1 = molecular target: T4, GalNAc-T1 (Homo sapiens, UniProt Q10472); assay: GalNAc-transferase assay with purified recombinant GalNAc-T1; conditions: acceptor substrate
T4 construct: Control constructs pAcGP67-GalNAc-T1-sol, pAcGP67-GalNAc-T2-sol, pAcGP67-GalNAc-T3-sol, and pAcGP67-O^2-sol were prepared as previously described; made in house; host or cells: insect cells (baculovirus, pAcGP67)
T4 sequence (Q10472 41-559 limits assumed): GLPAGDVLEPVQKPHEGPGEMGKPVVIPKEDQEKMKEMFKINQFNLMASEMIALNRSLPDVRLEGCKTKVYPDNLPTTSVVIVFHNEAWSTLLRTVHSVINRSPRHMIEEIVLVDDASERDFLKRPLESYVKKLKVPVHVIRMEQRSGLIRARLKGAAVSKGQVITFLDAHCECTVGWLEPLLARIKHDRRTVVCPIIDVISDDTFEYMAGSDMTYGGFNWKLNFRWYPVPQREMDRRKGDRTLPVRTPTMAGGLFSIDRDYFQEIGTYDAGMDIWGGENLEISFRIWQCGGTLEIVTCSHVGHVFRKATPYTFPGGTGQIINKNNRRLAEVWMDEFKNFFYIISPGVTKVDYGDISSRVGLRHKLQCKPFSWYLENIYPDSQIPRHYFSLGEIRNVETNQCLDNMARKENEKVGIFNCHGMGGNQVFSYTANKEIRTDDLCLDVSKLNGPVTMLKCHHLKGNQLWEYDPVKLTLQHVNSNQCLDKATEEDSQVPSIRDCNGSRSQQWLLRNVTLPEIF
Method: as §1
In this example, GalNAc-T4 was expressed in Sf9 insect cells. Expression constructs designed to contain amino acid residues 32-578 of the coding sequence of the putative GalNAc-T4 gene shown in SEQ ID NO:1 prepared by genomic PCR of two clones containing GalNAc-T4 (described in Bennett et al. (1998), supra) were cloned into a BamHI site of the expression vector pAcGP67 (Pharmingen), and the expression construct was sequenced. […]

Km (GalNAc-T2; acceptor substrate): > 2000 µM
Km (GalNAc-T3; acceptor substrate): > 2000 µM
Km (GalNAc-T1): > 2000 µM
Compound: Ac-QATEYEYLDYDFLPETEPPEM [PSGL-1b]

GalNAc-T2 activity with acceptor peptide (GalNAc-T2; 0.06 mM peptide in 50-μl assay): 22 ± 0.5 milliunits/mg
GalNAc-T2 activity with acceptor peptide (GalNAc-T2; 0.25 mM peptide in 50-μl assay): 74 ± 2 milliunits/mg
Compound: PRFQDSSSSKAPPPSLPSPSRLPG [hCG-β]

Further lines, the compound ahead of its results:

Compound: AHGVTSAPDTR [Muc1a′, peptide derived from the tandem repeat of human MUC1]
GalNAc-T2 activity with acceptor peptide (GalNAc-T2; 0.25 mM peptide in 50-μl assay): 28 ± 5 milliunits/mg
GalNAc-T2 activity with acceptor peptide (GalNAc-T2; 1 mM peptide in 50-μl assay): 83 ± 2 milliunits/mg
specific activity of GalNAc-T3 (GalNAc-T3; with Muc1a): 0.5 U/mg
GalNAc-T4 activity with acceptor peptide (GalNAc-T4; 0.25 mM peptide in 50-μl assay): 2 ± 0.4 milliunits/mg
GalNAc-T4 activity with acceptor peptide (GalNAc-T4; 1 mM peptide in 50-μl assay): 6.7 ± 1 milliunits/mg
GalNAc-T4 activity with substrate (in words) (GalNAc-T4; purified GalNAc-T4): somewhat poor activities

Compound: CC(=O)N[C@H]1[C@@H](OP(=O)(O)OP(=O)(O)OC[C@H]2O[C@@H](n3ccc(=O)[nH]c3=O)[C@H](O)[C@@H]2O)O[C@H](CO)[C@@H](O)[C@@H]1O [UDP-GlcNAc]
incorporation with alternative donor substrate (GalNAc-T4; Muc7 acceptor peptide): No incorporation

Compound: PTTTPISTTTMVTPTPTPTC [Muc2, peptide from the tandem repeats of MUC2]
GalNAc-T2 activity with acceptor peptide (GalNAc-T2; 0.06 mM peptide in 50-μl assay): 169 ± 2 milliunits/mg
GalNAc-T2 activity with acceptor peptide (GalNAc-T2; 0.25 mM peptide in 50-μl assay): 128 ± 5 milliunits/mg
GalNAc-T4 activity with acceptor peptide (GalNAc-T4; 0.06 mM peptide in 50-μl assay): 9 ± 0.5 milliunits/mg
GalNAc-T4 activity with acceptor peptide (GalNAc-T4; 0.25 mM peptide in 50-μl assay): 29 ± 0.8 milliunits/mg
